Data reported in patent US20100028340A1.

Key:
[1] = target: T1, recombinant purified human RGM A (R&D Systems Cat# 2459-RM) (human) (UniProt Q96B86); assay: competition ELISA on coated hRGMA; competitor biotinylated chimeric 5F9
T1 sequence: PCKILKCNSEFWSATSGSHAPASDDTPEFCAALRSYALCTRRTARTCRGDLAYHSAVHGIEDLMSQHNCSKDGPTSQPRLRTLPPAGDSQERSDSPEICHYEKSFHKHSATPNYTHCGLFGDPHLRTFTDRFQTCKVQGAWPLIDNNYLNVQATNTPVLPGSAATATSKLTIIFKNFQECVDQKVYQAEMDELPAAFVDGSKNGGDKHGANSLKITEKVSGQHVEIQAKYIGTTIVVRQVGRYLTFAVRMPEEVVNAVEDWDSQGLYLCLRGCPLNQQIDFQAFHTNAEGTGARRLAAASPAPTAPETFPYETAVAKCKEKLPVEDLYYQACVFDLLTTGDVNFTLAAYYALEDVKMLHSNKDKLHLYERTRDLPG

[2] = target: T1, recombinant purified human RGM A (R&D Systems Cat# 2459-RM) (human); assay: SPR (Biacore 3000), antibody captured by anti-human IgG Fc, hRGMA in solution, 25 °C

B1: h5F9.21 (antibody, human IgG1, V domains shown)
VH: EVQLVESGGGVVQPGRSLRLSCAASGFTFSNYGMNWIRQAPGKGLEWIGMIYYDSSEKHYADSVKGRFTISRDNSKNTLYLQMNSLRAEDTAVYYCAKGTTPDYWGQGTMVTVSS
VL: DVVLTQSPLSLPVTLGQPASISCRSSQSLEYSDGYTFLEWFLQKPGQSPQLLIYEVSNRFSGVPDRFSGSGSGTDFTLKISRVEAEDVGVYYCFQATHDPLTFGQGTKLEIKR
IC50 [1]: 0.6 µg/mL
Kd [2]: 7.59 nM
koff [2]: 0.00269 s⁻¹
kon [2]: 355000 M⁻¹ s⁻¹

B2: chimeric 5F9 (antibody, V domains shown)
VH: EVQLVESGGGLVQPGSSLKLSCVASGFTFSNYGMNWIRQAPKKGLEWIGMIYYDSSEKHYADSVKGRFTISRDNSKNTLYLEMNSLRSEDTAIYYCAKGTTPDYWGQGVMVTVSS
VL: DVVLTQTPVSLSVTLGDQASMSCRSSQSLEYSDGYTFLEWFLQKPGQSPQLLIYEVSNRFSGVPDRFIGSGSGTDFTLKISRVEPEDLGVYYCFQATHDPLTFGSGTKLEIKR
Kd [2]: 3.09 nM
koff [2]: 0.00236 s⁻¹
kon [2]: 765000 M⁻¹ s⁻¹

B3: h5F9.24 (antibody, human IgG1, V domains shown)
VH: EVQLVESGGGLVQPGGSLRLSCAASGFTFSNYGMNWIRQAPGKGLEWIGMIYYDSSEKHYADSVKGRFTISRDNSKNTLYLQMNSLRAEDTAVYYCAKGTTPDYWGQGTMVTVSS
VL: DVVLTQSPLSLPVTLGQPASISCRSSQSLEYSDGYTFLEWFQQRPGQSPRRLIYEVSNRFSGVPDRFSGSGSGTDFTLKISRVEAEDVGVYYCFQATHDPLTFGQGTKLEIKR
IC50 [1]: 1.32 µg/mL

B4: h5F9.23 (antibody, human IgG1, V domains shown)
VH: EVQLVESGGGLVQPGGSLRLSCAASGFTFSNYGMNWIRQAPGKGLEWIGMIYYDSSEKHYADSVKGRFTISRDNSKNTLYLQMNSLRAEDTAVYYCAKGTTPDYWGQGTMVTVSS
VL: DVVLTQSPLSLPVTLGQPASISCRSSQSLEYSDGYTFLEWFQQRPGQSPRLLIYEVSNRFSGVPDRFSGSGSGTDFTLKISRVEAEDVGVYYCFQATHDPLTFGQGTKLEIKR
IC50 [1]: 0.55 µg/mL
Kd [2]: 4.37 nM
koff [2]: 0.00221 s⁻¹
kon [2]: 507000 M⁻¹ s⁻¹

B5: h5F9.25 (antibody, human IgG1, V domains shown)
VH: EVQLVESGGGLVQPGGSLRLSCAASGFTFSNYGMNWIRQAPGKGLEWIGMIYYDSSEKHYADSVKGRFTISRDNSKNTLYLQMNSLRAEDTAVYYCAKGTTPDYWGQGTMVTVSS
VL: DVVLTQSPLSLPVTLGQPASISCRSSQSLEYSDGYTFLEWFLQKPGQSPQLLIYEVSNRFSGVPDRFSGSGSGTDFTLKISRVEAEDVGVYYCFQATHDPLTFGQGTKLEIKR
IC50 [1]: 0.66 µg/mL
Kd [2]: 5.78 nM
koff [2]: 0.00329 s⁻¹
kon [2]: 570000 M⁻¹ s⁻¹
